Reference: article doi:10.1101/382812

Target: Hcf106 G6CV14C (Pisum sativum)
Test: cross-linking

stoichiometry N: < 8
Substance: Hcf106 G6CV14C (natural protein)
